This test concerns the target zebrafish Ctla-4, HA-tagged (pCDNA3.1-HA-Ctla-4) (zebrafish). Put plainly: Western blot under non-reducing and reducing conditions.

“zebrafish Ctla-4, HA-tagged (pCDNA3.1-HA-Ctla-4) (receptor)” had a stoichiometry N of 2.

What is called stoichiometry N is the number of molecules, sites or subunits per partner or assembly.

Source of the values: paper doi:10.1101/2024.07.24.604955.
